Assay results taken from the supplement of paper PMC10567573.

B1: NP_009172.2 (parent)
chain: LPALFTDLYSQEITAEEAREALP

Variants of: B1
Test: protein stability index of a GFP-peptide fusion (GPS, HEK-293T) (PSI 1-6); higher = more stable
Details: c terminus: native
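Further: lentivirally expressed fusion library, cells FACS-sorted into six equal-sized GFP/DsRed ratio bins, PSI computed from sequencing read fractions per bin weighted by bin number.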

Row | Variant | protein stability index
1 | LPALFTDLYSQEITQEEAREALP [A15Q] | 2.84
2 | LPALFTDLYSQEITHEEAREALP [A15H] | 2.6
3 | LPALFTDLYSQEITLEEAREALP [A15L] | 2.53
4 | LPALFTDLYSQEITVEEAREALP [A15V] | 2.78
5 | LPALFTDLYSQEITSEEAREALP [A15S] | 2.67
6 | LPALFTDLYSQEITKEEAREALP [A15K] | 2.56
7 | LPALFTDLYSQEITIEEAREALP [A15I] | 2.76
8 | LPALFTDLYSQEITMEEAREALP [A15M] | 2.51
9 | LPALFTDLYSQEITAEEAREALH [P23H] | 4.15
10 | LPALFTDLYSQEITAEEAREALI [P23I] | 3.59
11 | LPALFTDLYSQEITAEEAREALE [P23E] | 5
12 | LPALFTDLYSQEITAEEAREALW [P23W] | 3
13 | LPALFTDLYSQEITAEEAREALV [P23V] | 4.18
14 | LPALFTDLYSQEITAEEAREALT [P23T] | 4.6
15 | LPALFTDLYSQEITAEEAREALF [P23F] | 3.94
16 | LPALFTDLYSQEITAEEAREALG [P23G] | 4.69
17 | LPALFTDLYSQEITAEEDREALP [A18D] | 3.24
18 | LPALFTDLYSQEITAEEIREALP [A18I] | 2.57
19 | LPALFTDLYSQEITAEETREALP [A18T] | 3.04
20 | LPALFTDLYSQEITAEERREALP [A18R] | 2.45
21 | LPALFTDLYSQEITAEEHREALP [A18H] | 2.42
22 | LPALFTDLYSQEITAEEMREALP [A18M] | 2.75
23 | LPALFTDLYSQEITAEEEREALP [A18E] | 2.83
24 | LPALFTDLYSFEITAEEAREALP [Q11F] | 2.52
25 | LPALFTDLYSLEITAEEAREALP [Q11L] | 2.65

Row | Variant | protein stability index
26 | LPALFTDLYSAEITAEEAREALP [Q11A] | 2.7
27 | LPALFTDLYSWEITAEEAREALP [Q11W] | 2.63
28 | LPALFTDLYSYEITAEEAREALP [Q11Y] | 2.67
29 | LPALFTDLYSGEITAEEAREALP [Q11G] | 3.59
30 | LPALFTDLYSHEITAEEAREALP [Q11H] | 2.76
31 | LPALFTDLYSKEITAEEAREALP [Q11K] | 2.4
32 | LPALFTDLYSIEITAEEAREALP [Q11I] | 2.52
33 | LPALFTDLYSNEITAEEAREALP [Q11N] | 2.92
34 | LPALFTDLYSMEITAEEAREALP [Q11M] | 2.54
35 | LPALFTDLYSQEIEAEEAREALP [T14E] | 2.66
36 | LPALFTDLYSQEIRAEEAREALP [T14R] | 2.44
37 | LPALFTDLYSQEINAEEAREALP [T14N] | 2.76
38 | LPALFTDLYSQEIIAEEAREALP [T14I] | 2.25
39 | LPALFTDLYSQEIFAEEAREALP [T14F] | 2.48
40 | LPALFTDLYSQEIVAEEAREALP [T14V] | 2.51
41 | LPALFTDLYSQEIYAEEAREALP [T14Y] | 2.56
42 | LPALFTDLYSQEIKAEEAREALP [T14K] | 2.34
43 | LPALFTDLYSQEIPAEEAREALP [T14P] | 3.48
44 | LPALFPDLYSQEITAEEAREALP [T6P] | 5.24
45 | LPALFGDLYSQEITAEEAREALP [T6G] | 4.09
46 | LPALFHDLYSQEITAEEAREALP [T6H] | 4.28
47 | LPALFMDLYSQEITAEEAREALP [T6M] | 3.69
48 | LPALFSDLYSQEITAEEAREALP [T6S] | 2.55
49 | LPALFEDLYSQEITAEEAREALP [T6E] | 3.68
50 | LPALFDDLYSQEITAEEAREALP [T6D] | 5.37

Row | Variant | protein stability index
51 | LPALFLDLYSQEITAEEAREALP [T6L] | 3.54
52 | LPALFVDLYSQEITAEEAREALP [T6V] | 2.24
53 | LPALFRDLYSQEITAEEAREALP [T6R] | 3.15
54 | LPALFNDLYSQEITAEEAREALP [T6N] | 4.77
55 | LPALFTDLYSQEITAPEAREALP [E16P] | 3.16
56 | LPALFTDLYSQEITAREAREALP [E16R] | 2.68
57 | LPALFTDLYSQEITADEAREALP [E16D] | 2.75
58 | LPALFTDLYSQEITAMEAREALP [E16M] | 2.58
59 | LPALFTDLYSQEITAWEAREALP [E16W] | 2.48
60 | LPALFTDLYSQEITAKEAREALP [E16K] | 2.97
61 | LPALFTDLYSQEITAAEAREALP [E16A] | 2.76
62 | LPALFTDLYSQLITAEEAREALP [E12L] | 3.04
63 | LPALFTDLYSQYITAEEAREALP [E12Y] | 3.07
64 | LPALFTDLYSQIITAEEAREALP [E12I] | 3.15
65 | LPALFTDLYSQRITAEEAREALP [E12R] | 2.59
66 | LPALFTDLYSQGITAEEAREALP [E12G] | 3.78
67 | LPALFTDLYSQNITAEEAREALP [E12N] | 3.79
68 | LPALFTDLYSQCITAEEAREALP [E12C] | 3.19
69 | LPALFTDLYSQFITAEEAREALP [E12F] | 3.01
70 | LDALFTDLYSQEITAEEAREALP [P2D] | 3.64
71 | LTALFTDLYSQEITAEEAREALP [P2T] | 2.51
72 | LRALFTDLYSQEITAEEAREALP [P2R] | 2.28
73 | LLALFTDLYSQEITAEEAREALP [P2L] | 2.48
74 | LWALFTDLYSQEITAEEAREALP [P2W] | 2.66
75 | LKALFTDLYSQEITAEEAREALP [P2K] | 2.5

Row | Variant | protein stability index
76 | LFALFTDLYSQEITAEEAREALP [P2F] | 2.54
77 | LPALFTDLYSQETTAEEAREALP [I13T] | 3.09
78 | LPALFTDLYSQELTAEEAREALP [I13L] | 2.71
79 | LPALFTDLYSQEGTAEEAREALP [I13G] | 3.81
80 | LPALFTDLYSQEPTAEEAREALP [I13P] | 3.87
81 | LPALFTDLYSQEWTAEEAREALP [I13W] | 2.15
82 | LPALFTDLYSQECTAEEAREALP [I13C] | 2.57
83 | LPALFTDLYSQESTAEEAREALP [I13S] | 3.26
84 | LPALFTDLYSQEITAEIAREALP [E17I] | 2.4
85 | LPALFTDLYSQEITAERAREALP [E17R] | 1.87
86 | LPALFTDLYSQEITAEKAREALP [E17K] | 2.18
87 | LPALFTDLYSQEITAENAREALP [E17N] | 2.5
88 | LPALFTDLYSQEITAELAREALP [E17L] | 2.16
89 | LPALFTDLYSQEITAESAREALP [E17S] | 2.33
90 | LPALFTDLYSQEITAEMAREALP [E17M] | 2.22
91 | LPALFTDLYSQEITAEGAREALP [E17G] | 2.21
92 | LPALFTDLYSQEITAEDAREALP [E17D] | 2.71
93 | LPALFTDLYSQEITAEWAREALP [E17W] | 2.4
94 | LPALCTDLYSQEITAEEAREALP [F5C] | 5.41
95 | LPALDTDLYSQEITAEEAREALP [F5D] | 5.58
96 | LPALLTDLYSQEITAEEAREALP [F5L] | 5.16
97 | LPALTTDLYSQEITAEEAREALP [F5T] | 5.25
